Laboratory results from US6491893B1, “Compounds for targeting and imaging infection and inflammation” (Biostream, Inc., priority 1999, dated 2002).
Like-named read-outs stand apart in the source and are kept apart here.

Experiments:
[1] = cited from earlier work
[2] = cited from earlier work; remark: listed apart in the source
[3] = tested on: intramuscular bacterial infections (E. coli, left posterior thigh); assay: Gamma camera imaging, T/B ratios from ROI analysis of scintigrams (Example 1, Table 1); format: in vivo, New Zealand white rabbits; conditions: for average Target:Background (T/B) ratio, gamma camera images: Average of 2 rabbits
Protocol: (§1) In order to label G-CSF with radioindium (^111In), G-CSF was conjugated with diethylenetriaminepentacetic acid (DTPA) via the active ester. DTPA conjugated G-CSF was labeled with In-111 and injected into rabbits bearing intramuscular bacterial infections. Two New Zealand white rabbits weighing approximately 2-3 kg were injected in their left posterior thigh with a 0.5 ml suspension of ˜10^9 E. coli for infection imaging and biodistribution studies. Animals were injected with In-111-DTPA-G-CSF at 24 hr after bacterial injection, when the animals were judged to have moderate infections by palpation.
[…], the animals were anesthetized with ketamine/xylazine (15.0 and 1.5 mg/kg) and scintigrams were acquired using a large field of view gamma camera equipped with a parallel hole medium energy collimator. Regions-of-interest (ROI's) were drawn over the area of infection and the contralateral normal muscle and target-to-background (T/B) ratios were calculated. After acquiring the final images, the animals were sacrificed with an over dose of sodium pentobarbital and biodistribution was determined. For comparison with the imaging results, infected to normal muscle and pus to normal muscle ratios were calculated from biodistribution data.

[4] = tested on: intramuscular bacterial infections (E. coli, left posterior thigh); format: in vivo, New Zealand white rabbits; conditions: from biodistribution data
Protocol: as §1
At 4 and 18 hours following injection of the In-111-DTPA-G-CSF, the animals were anesthetized with ketamine/xylazine (15.0 and 1.5 mg/kg) and scintigrams were acquired using a large field of view gamma camera equipped with a parallel hole medium energy collimator. Regions-of-interest (ROI's) were drawn over the area of infection and the contralateral normal muscle and target-to-background (T/B) ratios were calculated. After acquiring the final images, the animals were sacrificed with an over dose of sodium pentobarbital and biodistribution was determined. For comparison with the imaging results, infected to normal muscle and pus to normal muscle ratios were calculated from biodistribution data.

[5] = after intravenous administration over 30 min
[6] = Average, 18 Hours Post Injection
[7] = Rabbit #1, 18 Hours Post Injection
[8] = Rabbit #2, 18 Hours Post Injection

GM-CSF: colony stimulating factor promoting growth of progenitors of several myeloid lines
distribution half-life (T sub ½ alpha) [1, 5]: 5 to 15 min
elimination phase (T sub ½ Beta) [1, 5]: 1 to 9 h
time to peak serum concentration ([1]; after single subcutaneous bolus injections): ≤ 4 h
elimination half-life ([1]; single subcutaneous bolus injections, doses of 10 mμ g/kg): 174 min
serum concentration achieved ([1]; subcutaneous doses of 5-10 mμ g/kg, for 8-24 h): >= 10 ng/mL
time serum concentrations >=10 ng/mL are achieved ([1]; subcutaneous doses of 5-10 mμ g/kg): 8 to 24 h

B1: G-CSF: full length protein, polypeptide or peptide corresponding to natural G-CSF that binds to a CSF receptor (protein, UniProt P09919 31-207, looked up)
Granulocyte …: TPLGPASSLPQSFLLKCLEQVRKIQGDGAALQEKLVSECATYKLCHPEELVLLGHSLGIPWAPLSSCPSQALQLAGCLSQLHSGLFLYQGLLQALEGISPELGPTLDTLQLDVADFATTIWQQMEELGMAPALQPTQGAMPAFASAFQRRAGGVLVASHLQSFLEVSYRVLRHLAQP
serum concentration maintained ([2]; after doses of 5-10 μg/kg, for up to 16 h): > 10 ng/mL
time serum concentrations of >10 ng/mL are maintained ([2]; after doses of 5-10 mμ g/kg): up to 16 h
time C sub max values are maintained ([2]; after short (20-30 min) intravenous infusions): 30 to 60 min
estimated terminal half-life ([2]; after short intravenous infusions, doses up to 60 μg/kg): 45 to 432 min
serum concentration by 24 h ([2]; after single subcutaneous injections, by 24 h): < 10 % C sub max
time to peak serum concentration ([2]; after single subcutaneous injections): 4 to 6 h

B2: In-111-DTPA-GCSF: G-CSF conjugated with diethylenetriaminepentacetic acid (DTPA) via the active ester and labeled with In-111 (conjugate, UniProt P09919 31-207, looked up)
Granulocyte …: TPLGPASSLPQSFLLKCLEQVRKIQGDGAALQEKLVSECATYKLCHPEELVLLGHSLGIPWAPLSSCPSQALQLAGCLSQLHSGLFLYQGLLQALEGISPELGPTLDTLQLDVADFATTIWQQMEELGMAPALQPTQGAMPAFASAFQRRAGGVLVASHLQSFLEVSYRVLRHLAQP
modifications: DTPA conjugate labeled with In-111
T/B ratio calculated from ROI analysis of scintigrams ([3]; 3 hour after injection): 3.567
T/B ratio calculated from ROI analysis of scintigrams ([3]; 17 hours after injection): 11.87
average Target:Background (T/B) ratio, gamma camera images ([3]; 4 hours post injection): 3.567
average Target:Background (T/B) ratio, gamma camera images ([3]; 18 hours post injection): 11.87
Infected to normal tissue ratio from gamma camera images ([3]; Rabbit #1, 4 hours post injection): 3.359
Infected to normal tissue ratio from gamma camera images ([3]; Rabbit #1, 18 hours post injection): 8.643
Infected to normal tissue ratio from gamma camera images ([3]; Rabbit #2, 4 hours post injection): 3.775
Infected to normal tissue ratio from gamma camera images ([3]; Rabbit #2, 18 hours post injection): 15.10
localization at sites of infection (in words) ([3]; rabbits with E. coli infection): effective agent for localizing sites of infection
Infected/normal muscle ratio [4, 6]: 26.24
Pus/normal muscle ratio [4, 6]: 59.16
Infected/normal muscle #1 ratio [4, 7]: 36.89
Infected/normal muscle #2 ratio [4, 7]: 21.54
Infected/normal muscle #3 ratio [4, 7]: 20.11
Infected/normal muscle #4 ratio [4, 7]: 20.95
Infected/normal muscle #5 ratio [4, 7]: 15.63
Pus/normal muscle ratio [4, 7]: 23.56
Infected/normal muscle #1 ratio [4, 8]: 39.21
Infected/normal muscle #2 ratio [4, 8]: 26.17
Infected/normal muscle #3 ratio [4, 8]: 37.03
Infected/normal muscle #4 ratio [4, 8]: 28.44
Infected/normal muscle #5 ratio [4, 8]: 16.42
Pus/normal muscle ratio [4, 8]: 94.76
